Assay results as given in patent US20240417436A1 (BRIGHT PEAK THERAPEUTICS, published 2024).
Primed or numbered codes have the meaning given here. [ ]: non-standard residue; d: D form. Ygp″ = O-(PEG8-amino)-tyrosine (O-(8x polyethylene glycol-amino)-tyrosine); Yn3″ = O-(PEG9-azido)-tyrosine (O-(9x polyethylene glycol-azido)-tyrosine); Ygp = O-(8x polyethylene glycol-amino)-tyrosine; Yn3 = O-(9x polyethylene glycol-azido)-tyrosine; hSer = N[C@@H](CCO)C(=O)O; Nle = CCCC[C@H](N)C(=O)O

T1: IL-2 receptor βγ complex on pan T cells (human, UniProt P14784 27-551; P31785 23-369)
T1 sequence (looked up) 1: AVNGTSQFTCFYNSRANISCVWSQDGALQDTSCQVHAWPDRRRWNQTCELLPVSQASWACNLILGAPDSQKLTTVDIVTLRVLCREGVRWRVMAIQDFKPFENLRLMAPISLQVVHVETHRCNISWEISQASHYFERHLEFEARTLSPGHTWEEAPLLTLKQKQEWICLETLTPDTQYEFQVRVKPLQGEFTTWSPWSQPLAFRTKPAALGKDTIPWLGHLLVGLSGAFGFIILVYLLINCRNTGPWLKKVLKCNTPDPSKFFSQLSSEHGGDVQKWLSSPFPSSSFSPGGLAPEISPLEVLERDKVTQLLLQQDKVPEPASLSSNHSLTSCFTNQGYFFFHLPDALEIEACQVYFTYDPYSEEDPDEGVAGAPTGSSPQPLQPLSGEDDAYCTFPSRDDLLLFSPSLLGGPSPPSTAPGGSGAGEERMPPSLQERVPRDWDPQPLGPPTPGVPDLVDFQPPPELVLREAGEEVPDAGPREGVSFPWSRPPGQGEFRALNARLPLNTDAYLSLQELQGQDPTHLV
T1 sequence (looked up) 2: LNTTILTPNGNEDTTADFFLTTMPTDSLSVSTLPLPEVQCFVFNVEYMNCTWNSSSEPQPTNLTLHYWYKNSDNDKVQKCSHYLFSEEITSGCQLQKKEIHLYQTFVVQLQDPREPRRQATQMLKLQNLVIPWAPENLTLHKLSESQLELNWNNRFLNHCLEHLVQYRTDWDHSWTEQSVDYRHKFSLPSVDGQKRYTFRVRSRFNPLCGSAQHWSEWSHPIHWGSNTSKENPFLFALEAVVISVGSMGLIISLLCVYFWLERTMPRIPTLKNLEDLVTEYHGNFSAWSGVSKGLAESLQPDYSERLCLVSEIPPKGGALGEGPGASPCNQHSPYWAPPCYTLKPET

B1: CMP-136, MMP2 cleaved (ligand)
chain: APTSSSTKKTQLQLEHLLLDLQXILNGIENYKNPKLTRXLXYKFYXPKKATELKHLQCLEEELKPLEEVLXLAQSKNFHLRPRDLISNINVIVLELKGSETTFXCEYADETATIVEFLNRWITFSQSIISTLT
modifications: not fully specified; as CMP-136 but cleavable peptide cut by MMP2 (macrocycle opened); cut site not given
B2: CMP-137, MMP2 cleaved (ligand)
chain: APTSSSTKKTQLQLEHLLLDLQ[Nle]ILNGIENYKNPKLTR[Nle]L[hSer][Yn3″]KF[Ygp″][Nle]PKKATELKHLQCLEEELKPLEEVL[hSer]LAQSKNFHLRPRDLISNINVIVLELKGSETTF[hSer]CEYADETATIVEFLNRWITFSQSIISTLT
modifications: not fully specified (residue 29, N-terminus); ends and bridges not checked; also: macrocycle opened by MMP2, Ala1 N-terminus and Glu29 side chain each carry PEG24-linked peptide remnant, cut site not given here
B3: CMP-138, MMP2 cleaved (ligand)
chain: B1 chain
modifications: not fully specified; as CMP-138 but cleavable peptide cut by MMP2 (macrocycle opened); cut site not given
B4: CMP-144, MMP2 cleaved (ligand)
chain: APTSSSTKKTQLQLEHLLLDLQKILNGINNYKNPKLTR[Nle]L[hSer][Yn3]KF[Ygp][Nle]PKKATELKHLQCLEEELKPLEEVL[hSer]LAQSKNFHLRPRDLISNINVIVLELKGSETTF[hSer]CEYADETATIVEFLNRWITFSQSIISTLT
modifications: not fully specified (residue 23); ends and bridges not checked; also: MMP2-cut remnant of cleavable moiety on Lys23 side chain, not given here
B5: CMP-145, MMP2 cleaved (ligand)
chain: APTSSSTKKTQLQLEHLLLDLQKILNGINNYKNPKLTR[Nle]L[hSer][Yn3]KF[Ygp][Nle]PKKATELKHLQCLEEELKPLEEVL[hSer]LAQSKNFHLRPRDLISNINVIVLELKGSETTF[hSer]CEYADETATIVEFLNRWITFSQSIISTLT
modifications: not fully specified (residue 23, bridges); also: Lys23 side chain bears KKPLGLAG (branched PEG) peptide cut by MMP2, remnants stay attached, cut site not given here
B6: CMP-146 (ligand)
chain: APTSSSTKKTKLQLEHLLLDLQ[Nle]ILNGINNYKNPKLTR[Nle]L[hSer][Yn3]KF[Ygp][Nle]PKKATELKHLQCLEEELKPLEEVL[hSer]LAQSKNFHLRPRDLISNINVIVLELKGSETTF[hSer]CEYADETATIVEFLNRWITFSQSIISTLT
modifications: not fully specified (residue 11); ends and bridges not checked; also: cleavable moiety on Lys11 side chain, structure not given here
B7: CMP-146, MMP2 cleaved (ligand)
chain: APTSSSTKKTKLQLEHLLLDLQ[Nle]ILNGINNYKNPKLTR[Nle]L[hSer][Yn3]KF[Ygp][Nle]PKKATELKHLQCLEEELKPLEEVL[hSer]LAQSKNFHLRPRDLISNINVIVLELKGSETTF[hSer]CEYADETATIVEFLNRWITFSQSIISTLT
modifications: not fully specified (residue 11); ends and bridges not checked; also: MMP2-cut remnant of cleavable moiety on Lys11 side chain, not given here
B8: CMP-147 (ligand)
chain: APTSSSTKKTQLKLEHLLLDLQ[Nle]ILNGINNYKNPKLTR[Nle]L[hSer][Yn3]KF[Ygp][Nle]PKKATELKHLQCLEEELKPLEEVL[hSer]LAQSKNFHLRPRDLISNINVIVLELKGSETTF[hSer]CEYADETATIVEFLNRWITFSQSIISTLT
modifications: not fully specified (residue 13); ends and bridges not checked; also: cleavable moiety on Lys13 side chain, structure not given here
B9: CMP-147, MMP2 cleaved (ligand)
chain: APTSSSTKKTQLKLEHLLLDLQ[Nle]ILNGINNYKNPKLTR[Nle]L[hSer][Yn3]KF[Ygp][Nle]PKKATELKHLQCLEEELKPLEEVL[hSer]LAQSKNFHLRPRDLISNINVIVLELKGSETTF[hSer]CEYADETATIVEFLNRWITFSQSIISTLT
modifications: not fully specified (residue 13); ends and bridges not checked; also: MMP2-cut remnant of cleavable moiety on Lys13 side chain, not given here
B10: CMP-148 (ligand)
chain: APTSSSTKKTQLQLKHLLLDLQ[Nle]ILNGINNYKNPKLTR[Nle]L[hSer][Yn3]KF[Ygp][Nle]PKKATELKHLQCLEEELKPLEEVL[hSer]LAQSKNFHLRPRDLISNINVIVLELKGSETTF[hSer]CEYADETATIVEFLNRWITFSQSIISTLT
modifications: not fully specified (residue 15); ends and bridges not checked; also: cleavable moiety on Lys15 side chain, structure not given here
B11: CMP-148, MMP2 cleaved (ligand)
chain: APTSSSTKKTQLQLKHLLLDLQ[Nle]ILNGINNYKNPKLTR[Nle]L[hSer][Yn3]KF[Ygp][Nle]PKKATELKHLQCLEEELKPLEEVL[hSer]LAQSKNFHLRPRDLISNINVIVLELKGSETTF[hSer]CEYADETATIVEFLNRWITFSQSIISTLT
modifications: not fully specified (residue 15); ends and bridges not checked; also: MMP2-cut remnant of cleavable moiety on Lys15 side chain, not given here
B12: CMP-149 (ligand)
chain: APTSSSTKKTQLQLEHLLKDLQ[Nle]ILNGINNYKNPKLTR[Nle]L[hSer][Yn3]KF[Ygp][Nle]PKKATELKHLQCLEEELKPLEEVL[hSer]LAQSKNFHLRPRDLISNINVIVLELKGSETTF[hSer]CEYADETATIVEFLNRWITFSQSIISTLT
modifications: not fully specified (residue 19); ends and bridges not checked; also: cleavable moiety on Lys19 side chain, structure not given here
B13: CMP-149, MMP2 cleaved (ligand)
chain: APTSSSTKKTQLQLEHLLKDLQ[Nle]ILNGINNYKNPKLTR[Nle]L[hSer][Yn3]KF[Ygp][Nle]PKKATELKHLQCLEEELKPLEEVL[hSer]LAQSKNFHLRPRDLISNINVIVLELKGSETTF[hSer]CEYADETATIVEFLNRWITFSQSIISTLT
modifications: not fully specified (residue 19); ends and bridges not checked; also: MMP2-cut remnant of cleavable moiety on Lys19 side chain, not given here
B14: CMP-150 (ligand)
chain: APTSSSTKKTQLQLEHLLLDLK[Nle]ILNGINNYKNPKLTR[Nle]L[hSer][Yn3]KF[Ygp][Nle]PKKATELKHLQCLEEELKPLEEVL[hSer]LAQSKNFHLRPRDLISNINVIVLELKGSETTF[hSer]CEYADETATIVEFLNRWITFSQSIISTLT
modifications: not fully specified (residue 22); ends and bridges not checked; also: cleavable moiety on Lys22 side chain, structure not given here
B15: CMP-150, MMP2 cleaved (ligand)
chain: APTSSSTKKTQLQLEHLLLDLK[Nle]ILNGINNYKNPKLTR[Nle]L[hSer][Yn3]KF[Ygp][Nle]PKKATELKHLQCLEEELKPLEEVL[hSer]LAQSKNFHLRPRDLISNINVIVLELKGSETTF[hSer]CEYADETATIVEFLNRWITFSQSIISTLT
modifications: also: K22 side chain bears remnant of cleavable peptide after MMP2 cut, cut site not given here

Target: T1, IL-2 receptor βγ complex on pan T cells
Assay: cell-based or functional assay

Binder	Average EC50, pSTAT5 assay in pan T cells, MMP2 cleaved molecule
B1	2.4 nM
B2	4.09 nM
B3	2.32 nM

Target: T1, IL-2 receptor βγ complex on pan T cells
Assay: cell-based or functional assay
Remark: another data set of the same source

Binder	Average EC50, pSTAT5 assay in pan T cells, MMP2 cleaved molecule	Average EC50, pSTAT5 assay in pan T cells, intact molecule
B4	0.63 nM	
B5	1.43 nM	
B6		4.29 nM
B7	0.92 nM	
B8		3.86 nM
B9	1.29 nM	
B10		3.57 nM
B11	0.95 nM	
B12		46.7 nM
B13	9.56 nM	
B14		6.38 nM
B15	0.45 nM	
